The values below come from US20120213794A1 (published 2012).

The target in experiment [1] is T1, murine PCSK9 (mouse, UniProt Q80W65 35-694, limits assumed). Briefly: cell-based or functional assay.
For experiment [2], the target named is T2, human PCSK9 (human, UniProt Q8NBP7 31-692). Put plainly: cell-based or functional assay.
T2 sequence (Q8NBP7 31-692 limits assumed): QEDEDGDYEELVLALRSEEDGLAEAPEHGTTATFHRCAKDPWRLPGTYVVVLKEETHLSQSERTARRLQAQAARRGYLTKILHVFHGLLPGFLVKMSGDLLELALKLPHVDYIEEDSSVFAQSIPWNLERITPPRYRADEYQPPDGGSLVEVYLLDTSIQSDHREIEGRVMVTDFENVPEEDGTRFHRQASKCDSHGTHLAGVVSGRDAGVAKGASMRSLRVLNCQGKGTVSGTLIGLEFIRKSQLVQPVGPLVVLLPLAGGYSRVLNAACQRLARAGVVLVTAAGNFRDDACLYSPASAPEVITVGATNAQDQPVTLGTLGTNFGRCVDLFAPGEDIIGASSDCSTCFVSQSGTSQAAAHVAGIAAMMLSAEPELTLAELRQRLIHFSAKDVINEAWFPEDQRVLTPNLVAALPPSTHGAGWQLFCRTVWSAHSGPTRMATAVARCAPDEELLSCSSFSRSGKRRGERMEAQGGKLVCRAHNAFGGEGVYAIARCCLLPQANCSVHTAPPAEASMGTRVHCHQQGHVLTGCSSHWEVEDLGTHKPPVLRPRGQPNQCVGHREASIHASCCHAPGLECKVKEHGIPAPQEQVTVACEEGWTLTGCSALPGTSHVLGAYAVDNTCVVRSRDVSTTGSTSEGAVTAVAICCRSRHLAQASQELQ
The target of experiment [3] is T3, rhesus PCSK9 (rhesus, UniProt A8T666 31-692, limits assumed). Put plainly: cell-based or functional assay.
For experiment [4], the target named is T4, human PCSK9 (human, UniProt Q8NBP7 31-692).
T4 construct: also called hPCSK9
Put plainly: Biacore (SPR), IgG2 captured, PCSK9 as analyte. On the technique in general: SPR reads the build-up and loss of mass on a sensor chip optically.
T4 sequence (Q8NBP7 31-692 limits assumed): as above

Experiment [5] concerns the target T5, Rhesus PCSK9 (rhesus, UniProt A8T666 31-692, limits assumed).
T5 construct: also called rhPCSK9
Put plainly: Biacore (SPR), IgG2 captured, PCSK9 as analyte.

Another experiment concerns the target T6, Mouse PCSK9 (mouse, UniProt Q80W65 35-694, limits assumed).
T6 construct: Column head prints 'Mouse 9'; also called Mouse 9; mPCSK9
Put plainly: Biacore (SPR), IgG2 captured, PCSK9 as analyte.

The target of experiment [6] is T1, murine PCSK9. Briefly: cell-based or functional assay. This is another data set of the same source.
Experiment [7] has as its target T2, human PCSK9. Briefly: cell-based or functional assay. This is another data set of the same source.
Experiment [8] addresses T3, rhesus PCSK9. Briefly: cell-based or functional assay. The source holds these as a separate data set.
The target in another experiment is rat PCSK9 (rat, UniProt P59996 31-691, limits assumed). Briefly: Biacore (SPR), IgG2 captured, PCSK9 as analyte.
Chain of rat PCSK9 (P59996 31-691 limits assumed): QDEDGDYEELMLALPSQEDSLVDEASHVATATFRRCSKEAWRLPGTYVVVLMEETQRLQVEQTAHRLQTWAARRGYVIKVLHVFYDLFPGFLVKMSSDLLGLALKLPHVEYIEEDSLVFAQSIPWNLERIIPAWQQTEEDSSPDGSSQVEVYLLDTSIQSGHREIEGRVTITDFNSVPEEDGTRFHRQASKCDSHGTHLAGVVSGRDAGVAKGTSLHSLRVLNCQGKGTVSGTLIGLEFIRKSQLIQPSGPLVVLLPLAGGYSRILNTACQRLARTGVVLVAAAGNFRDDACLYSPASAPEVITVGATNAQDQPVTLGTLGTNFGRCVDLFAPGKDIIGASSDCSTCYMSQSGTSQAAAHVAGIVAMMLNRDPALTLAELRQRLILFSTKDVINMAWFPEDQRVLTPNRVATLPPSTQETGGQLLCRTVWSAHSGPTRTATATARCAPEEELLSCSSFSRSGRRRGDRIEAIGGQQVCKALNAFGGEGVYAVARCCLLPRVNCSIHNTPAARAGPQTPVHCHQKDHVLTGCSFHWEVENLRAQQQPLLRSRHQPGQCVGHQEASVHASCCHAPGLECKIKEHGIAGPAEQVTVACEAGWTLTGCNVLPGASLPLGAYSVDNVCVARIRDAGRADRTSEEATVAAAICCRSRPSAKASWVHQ

T6 sequence (Q80W65 35-694 limits assumed): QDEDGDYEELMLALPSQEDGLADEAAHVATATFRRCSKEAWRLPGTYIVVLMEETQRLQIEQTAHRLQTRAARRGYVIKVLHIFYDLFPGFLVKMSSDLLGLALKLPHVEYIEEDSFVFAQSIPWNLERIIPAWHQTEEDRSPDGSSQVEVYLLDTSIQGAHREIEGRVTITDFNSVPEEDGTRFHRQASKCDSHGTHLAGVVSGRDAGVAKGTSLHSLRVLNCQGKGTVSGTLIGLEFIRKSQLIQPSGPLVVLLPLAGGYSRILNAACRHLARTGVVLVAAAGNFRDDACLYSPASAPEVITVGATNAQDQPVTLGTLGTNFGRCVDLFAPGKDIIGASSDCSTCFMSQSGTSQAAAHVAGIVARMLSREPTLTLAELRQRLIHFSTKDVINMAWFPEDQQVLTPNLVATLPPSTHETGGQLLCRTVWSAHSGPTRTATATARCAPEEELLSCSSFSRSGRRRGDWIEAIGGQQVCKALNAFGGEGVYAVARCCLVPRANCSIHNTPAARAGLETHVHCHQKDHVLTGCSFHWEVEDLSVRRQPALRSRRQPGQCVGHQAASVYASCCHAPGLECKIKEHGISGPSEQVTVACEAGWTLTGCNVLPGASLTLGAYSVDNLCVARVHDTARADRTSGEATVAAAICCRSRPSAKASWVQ
T1 sequence (Q80W65 35-694 limits assumed): as above
T5 sequence (A8T666 31-692 limits assumed): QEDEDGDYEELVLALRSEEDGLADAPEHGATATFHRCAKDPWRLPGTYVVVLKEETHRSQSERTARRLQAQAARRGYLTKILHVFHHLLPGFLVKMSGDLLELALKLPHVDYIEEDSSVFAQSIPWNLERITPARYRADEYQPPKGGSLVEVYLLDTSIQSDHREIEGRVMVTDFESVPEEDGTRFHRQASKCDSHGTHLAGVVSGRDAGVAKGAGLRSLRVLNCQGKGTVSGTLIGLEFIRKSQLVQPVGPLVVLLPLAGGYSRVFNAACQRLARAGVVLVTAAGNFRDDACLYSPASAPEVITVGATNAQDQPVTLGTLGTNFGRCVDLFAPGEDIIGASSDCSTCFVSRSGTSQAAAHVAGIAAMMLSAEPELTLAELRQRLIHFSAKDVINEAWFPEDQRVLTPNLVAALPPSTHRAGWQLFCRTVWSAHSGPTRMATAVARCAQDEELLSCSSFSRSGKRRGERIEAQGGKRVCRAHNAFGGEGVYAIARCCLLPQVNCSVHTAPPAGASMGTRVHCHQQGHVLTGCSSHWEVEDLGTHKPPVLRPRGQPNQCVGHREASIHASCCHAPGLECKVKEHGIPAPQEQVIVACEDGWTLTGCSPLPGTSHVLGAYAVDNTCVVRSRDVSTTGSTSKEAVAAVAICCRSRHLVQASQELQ
T3 sequence (A8T666 31-692 limits assumed): as above

B1: AX114 Fab (Fab, V domains shown)
VH: EVQLLESGGGLVQPGGSLRLSCKASGYTFSSYGMYWVRQAPGKGLEWIGWIDPGSGGTKYNEKFKGKATISRDNSKNTLYLQMNSLRAEDTAVYYCARERYGYYFDYWGQGTLVTVSS
VL: EIVLTQSPATLSLSPGERATITCRASQYVGTYLNWYQQKPGQAPRLLIYDASNRATGIPARFSGSGSGTDFTLTISSLEPEDFAVYYCQVWDSSPPVAFGGGTKVEIK
Take B1: the “Fab IC50 (nM), inhibition of PCSK9 on LDL uptake” value (“Fab IC50 (nM), inhibition” below) came out at 326 nM in the experiment with murine PCSK9 [1], 179 nM with human PCSK9 [2] and 194 nM with rhesus PCSK9 [3].

B2: AX139 Fab (Fab, V domains shown)
VH: EVQLLESGGGLVQPGGSLRLSCKASGYTFSSYGMYWVRQAPGKGLEWIGWIDPGSGGTKYNEKFKGKATISRDNSKNTLYLQMNSLRAEDTAVYYCARERYGYYFDYWGQGTLVTVSS
VL: EIVLTQSPATLSLSPGERATITCRASQYVGSYLNWYQQKPGQAPRLLIYDAANRATGIPARFSGSGSGTDFTLTISSLEPEDFAVYYCQVWDSSPPVVFGGGTKVEIK
As to B2, the results for the “Fab IC50 (nM), inhibition” value with murine PCSK9 [1] and with human PCSK9 [2] were 22.9 nM and 37.7 nM, respectively.

B3: AX210 IgG2 (antibody, V domains shown)
VH: QVQLLESGGGLVQPGGSLRLSCKASGYTFSSYSIYWVRQAPGKGLEWIGWIDPGNGGTRYNQKFQSKATISRDNSKNTLYLQMNSLRAEDTAVYYCARARVGYSLDYWGQGTLVTVSS
VL: EIVLTQSPATLSLSPGERATITCRASQYVGSYLNWYQQKPGQAPRLLIYDASNRATGIPARFSGSGSGTDFTLTISSLEPEDFAVYYCQVWDSSPPVVFGGGTKVEIK
With B3, the Kd (as a rule, the constant that tells how readily two partners part at equilibrium) with human PCSK9 [4] came to 2.64 nM; with Rhesus PCSK9 [5] it was 0.944 nM; with Mouse PCSK9 it was 3.6 nM.

B4: AX210 IgG2 (antibody, V domains shown)
VH: QVQLLESGGGLVQPGGSLRLSCKASGYTFSSYSIYWVRQAPGKGLEWIGWIDPGNGGTRYNQKFQSKATISRDNSKNTLYLQMNSLRAEDTAVYYCARARVGYSLDYWGQGTLVTVSS
VL: EIVLTQSPATLSLSPGERATITCRASQYVGSYLNWYQQKPGQAPRLLIYDASNRATGIPARFSGSGSGTDFTLTISSLEPEDFAVYYCQVWDSSPPVVFGGGTKVEIK
For B4, the “IgG2 IC50 (nM), inhibition of PCSK9 (LDL uptake assay)” value (shortened to “IgG2 IC50 (nM), inhibition of PCSK9”) with murine PCSK9 [6] is 15.9 nM; with human PCSK9 [7], 6.5 nM; in the experiment with rhesus PCSK9 [8], 9.7 nM.

B5: AX211 IgG2 (antibody, V domains shown)
VH: QVQLLESGGGLVQPGGSLRLSCKASGYTFSRQGFTWVRQAPGKGLEWIGWIDPGNGGTRYNEKFKGKATISRDNSKNTLYLQMNSLRAEDTAVYYCARYRVGYSLDYWGQGTLVTVSS
VL: EIVLTQSPATLSLSPGERATITCRASQYVGSYLNWYQQKPGQAPRLLIYDASNRATGIPARFSGSGSGTDFTLTISSLEPEDFAVYYCQVWDSSPPVVFGGGTKVEIK
As for B5, the “IgG2 IC50 (nM), inhibition of PCSK9” value amounted to 11.1 nM with murine PCSK9 [6], 7.5 nM with human PCSK9 [7] and 4.4 nM with rhesus PCSK9 [8].

B6: AX132 IgG2 (antibody)
heavy: EVQLLESGGGLVQPGGSLRLSCKASGYTFSSYGMYWVRQAPGKGLEWIGWIDPGSGGTKYNEKFKGKATISRDNSKNTLYLQMNSLRAEDTAVYYCARERYGYYFDYWGQGTLVTVSSASTKGPSVFPLAPCSRSTSESTAALGCLVKDYFPEPVTVSWNSGALTSGVHTFPAVLQSSGLYSLSSVVTVPSSNFGTQTYTCNVDHKPSNTKVDKTVERKCCVECPPCPAPPVAGPSVFLFPPKPKDTLMISRTPEVTCVVVDVSHEDPEVQFNWYVDGVEVHNAKTKPREEQFNSTFRVVSVLTVVHQDWLNGKEYKCKVSNKGLPAPIEKTISKTKGQPREPQVYTLPPSREEMTKNQVSLTCLVKGFYPSDIAVEWESNGQPENNYKTTPPMLDSDGSFFLYSKLTVDKSRWQQGNVFSCSVMHEALHNHYTQKSLSLSPGK
VL: EIVLTQSPATLSLSPGERATITCRASQYVGSYLNWYQQKPGQAPRLLIYDASNRATGIPARFSGSGSGTDFTLTISSLEPEDFAVYYCQVWDSSPPVVFGGGTKVEIK
Take B6: the “IgG2 IC50 (nM), inhibition of PCSK9” value in the experiment with murine PCSK9 [6] was found to be 9.4 nM; with human PCSK9 [7] it was 8.9 nM; with rhesus PCSK9 [8], 11.5 nM.

B7: AX114 IgG2 (antibody, V domains shown)
VH: EVQLLESGGGLVQPGGSLRLSCKASGYTFSSYGMYWVRQAPGKGLEWIGWIDPGSGGTKYNEKFKGKATISRDNSKNTLYLQMNSLRAEDTAVYYCARERYGYYFDYWGQGTLVTVSS
VL: EIVLTQSPATLSLSPGERATITCRASQYVGTYLNWYQQKPGQAPRLLIYDASNRATGIPARFSGSGSGTDFTLTISSLEPEDFAVYYCQVWDSSPPVAFGGGTKVEIK
As for B7, the figures for the Kd in the experiment with human PCSK9 [4], with Rhesus PCSK9 [5] and in the experiment with Mouse PCSK9 were 24 nM, 11.6 nM and 11.2 nM, respectively.

B8: AX137 Fab (Fab, V domains shown)
VH: EVQLLESGGGLVQPGGSLRLSCKASGYTFSSYGMYWVRQAPGKGLEWIGWIDPGSGGTKYNEKFKGKATISRDNSKNTLYLQMNSLRAEDTAVYYCARERYGYYFDYWGQGTLVTVSS
VL: EIVLTQSPATLSLSPGERATITCRASQYIGSYLNWYQQKPGQAPRLLIYDASNRATGIPARFSGSGSGTDFTLTISSLEPEDFAVYYCQAWDSSPPVVFGGGTKVEIK
As to B8, the “Fab IC50 (nM), inhibition” value in the experiment with murine PCSK9 [1] came to 27.4 nM; with human PCSK9 [2], 74.4 nM.

B9: AX132 Fab (Fab, V domains shown)
VH: EVQLLESGGGLVQPGGSLRLSCKASGYTFSSYGMYWVRQAPGKGLEWIGWIDPGSGGTKYNEKFKGKATISRDNSKNTLYLQMNSLRAEDTAVYYCARERYGYYFDYWGQGTLVTVSS
VL: EIVLTQSPATLSLSPGERATITCRASQYVGSYLNWYQQKPGQAPRLLIYDASNRATGIPARFSGSGSGTDFTLTISSLEPEDFAVYYCQVWDSSPPVVFGGGTKVEIKR
Consider B9, for which the “Fab IC50 (nM), inhibition” value worked out at 26.9 nM in the experiment with murine PCSK9 [1] and 62.2 nM with human PCSK9 [2].

B10: AX137 IgG2 (antibody, V domains shown)
VH: EVQLLESGGGLVQPGGSLRLSCKASGYTFSSYGMYWVRQAPGKGLEWIGWIDPGSGGTKYNEKFKGKATISRDNSKNTLYLQMNSLRAEDTAVYYCARERYGYYFDYWGQGTLVTVSS
VL: EIVLTQSPATLSLSPGERATITCRASQYIGSYLNWYQQKPGQAPRLLIYDASNRATGIPARFSGSGSGTDFTLTISSLEPEDFAVYYCQAWDSSPPVVFGGGTKVEIK
As for B10, the figures for the “IgG2 IC50 (nM), inhibition of PCSK9” value in the experiment with murine PCSK9 [6], with human PCSK9 [7] and in the experiment with rhesus PCSK9 [8] were 5.3 nM, 9.8 nM and 10 nM, respectively.

B11: AX212 IgG2 (antibody, V domains shown)
VH: QVQLLESGGGLVQPGGSLRLSCKASGYTFSSYSFSWVRQAPGKGLEWIGYIDPGSGGTKYNQKFQGKATISRDNSKNTLYLQMNSLRAEDTAVYYCARQRVGYSLDYWGQGTLVTVSS
VL: EIVLTQSPATLSLSPGERATITCRASQYVGSYLNWYQQKPGQAPRLLIYDASNRATGIPARFSGSGSGTDFTLTISSLEPEDFAVYYCQVWDSSPPVVFGGGTKVEIK
Regarding B11, the dissociation constant Kd in the experiment with human PCSK9 [4] is 2.12 nM; in the experiment with Rhesus PCSK9 [5], 0.774 nM; with Mouse PCSK9, 2.74 nM.

B12: AX211 IgG2 (antibody, V domains shown)
VH: QVQLLESGGGLVQPGGSLRLSCKASGYTFSRQGFTWVRQAPGKGLEWIGWIDPGNGGTRYNEKFKGKATISRDNSKNTLYLQMNSLRAEDTAVYYCARYRVGYSLDYWGQGTLVTVSS
VL: EIVLTQSPATLSLSPGERATITCRASQYVGSYLNWYQQKPGQAPRLLIYDASNRATGIPARFSGSGSGTDFTLTISSLEPEDFAVYYCQVWDSSPPVVFGGGTKVEIK
In the case of B12, the Kd with human PCSK9 [4] was 1.63 nM; with Rhesus PCSK9 [5], 0.493 nM; in the experiment with Mouse PCSK9 it was 1.66 nM.

B13: AX132 IgG2 (antibody)
heavy: EVQLLESGGGLVQPGGSLRLSCKASGYTFSSYGMYWVRQAPGKGLEWIGWIDPGSGGTKYNEKFKGKATISRDNSKNTLYLQMNSLRAEDTAVYYCARERYGYYFDYWGQGTLVTVSSASTKGPSVFPLAPCSRSTSESTAALGCLVKDYFPEPVTVSWNSGALTSGVHTFPAVLQSSGLYSLSSVVTVPSSNFGTQTYTCNVDHKPSNTKVDKTVERKCCVECPPCPAPPVAGPSVFLFPPKPKDTLMISRTPEVTCVVVDVSHEDPEVQFNWYVDGVEVHNAKTKPREEQFNSTFRVVSVLTVVHQDWLNGKEYKCKVSNKGLPAPIEKTISKTKGQPREPQVYTLPPSREEMTKNQVSLTCLVKGFYPSDIAVEWESNGQPENNYKTTPPMLDSDGSFFLYSKLTVDKSRWQQGNVFSCSVMHEALHNHYTQKSLSLSPGK
light: EIVLTQSPATLSLSPGERATITCRASQYVGSYLNWYQQKPGQAPRLLIYDASNRATGIPARFSGSGSGTDFTLTISSLEPEDFAVYYCQVWDSSPPVVFGGGTKVEIKRTVAAPSVFIFPPSDEQLKSGTASVVCLLNNFYPREAKVQWKVDNALQSGNSQESVTEQDSKDSTYSLSSTLTLSKADYEKHKVYACEVTHQGLSSPVTKSFNRGEC
In the case of B13, the results for the equilibrium dissociation constant (Kd) with rat PCSK9 and with Mouse PCSK9 were around 100 nM and 2.76 nM, respectively.

B14: AX213 IgG2 (antibody, V domains shown)
VH: EVQLLESGGGLVQPGGSLRLSCKASGYTFSRYGINWVRQAPGKGLEWIGRIDPGNGGTRYNEKFKGKATISRDNSKNTLYLQMNSLRAEDTAVYYCARANDGYSFDYWGQGTLVTVSS
VL: EIVLTQSPATLSLSPGERATITCRASQYVGSYLNWYQQKPGQAPRLLIYDASNRATGIPARFSGSGSGTDFTLTISSLEPEDFAVYYCQVWDSSPPVVFGGGTKVEIKR
As for B14, the Kd with human PCSK9 [4] is 2.07 nM; with Rhesus PCSK9 [5], 1.89 nM; with Mouse PCSK9, 3.25 nM.
